The series deals with the molecule itself. The series can be described thus: SEC; gel filtration of purified MBP fusion proteins, Superose 6 Increase 10/300 GL, 4 °C, TN buffer (50 mM Tris/HCl pH 7.4, 150 mM NaCl) with 0.1% Triton X-100; growth medium with or without δ-aminolevulinic acid. Background: Size exclusion chromatography separates by hydrodynamic size, large species first.

A word on the stoichiometry N: it is the number of molecules, sites or subunits per partner or assembly.

B1: TNFα-NTF(1–47) (domain or fragment, human, UniProt P01375 1-47, looked up)
chain: MSTESMIRDVELAEEALPKKTGGPQGSRRCLFLSLFSFLIVAGATTL
notes: The text names it without MBP; source: E. coli NEB Express (pMalC5X), membrane fraction solubilised with Triton X-100, purified (amylose); not shown: MBP, N-terminal, kept
Turning to B1, the “stoichiometry N” value turned out to be 2.

B2: MBP-TNFα-NTF(1–76) (domain or fragment, human, UniProt P01375 1-76, looked up)
chain: MSTESMIRDVELAEEALPKKTGGPQGSRRCLFLSLFSFLIVAGATTLFCLLHFGVIGPQREEFPRDLSLISPLAQA
notes: also called TNFα-NTF(1–76) wt; MBP-TNFα(1–76); source: E. coli NEB Express (pMalC5X), membrane fraction solubilised with Triton X-100, purified (amylose); not shown: MBP, N-terminal, kept
Turning to B2, the “stoichiometry N” value was determined as 3.

B3: TNFα-NTF(1–51) (domain or fragment, human, UniProt P01375 1-51, looked up)
chain: MSTESMIRDVELAEEALPKKTGGPQGSRRCLFLSLFSFLIVAGATTLFCLL
notes: as for B1
As for B3, the binding result is recorded as “binds”.

The record behind these values is paper PMC7021776, “Heme binding of transmembrane signaling proteins undergoing regulated intramembrane proteolysis” (Communications Biology, 2020).
